This is an account of results in patent US20150353911.

This series concerns the target FVII-186, P08709.

Sequence of FVII-186, P08709 (P08709 whole entry, looked up): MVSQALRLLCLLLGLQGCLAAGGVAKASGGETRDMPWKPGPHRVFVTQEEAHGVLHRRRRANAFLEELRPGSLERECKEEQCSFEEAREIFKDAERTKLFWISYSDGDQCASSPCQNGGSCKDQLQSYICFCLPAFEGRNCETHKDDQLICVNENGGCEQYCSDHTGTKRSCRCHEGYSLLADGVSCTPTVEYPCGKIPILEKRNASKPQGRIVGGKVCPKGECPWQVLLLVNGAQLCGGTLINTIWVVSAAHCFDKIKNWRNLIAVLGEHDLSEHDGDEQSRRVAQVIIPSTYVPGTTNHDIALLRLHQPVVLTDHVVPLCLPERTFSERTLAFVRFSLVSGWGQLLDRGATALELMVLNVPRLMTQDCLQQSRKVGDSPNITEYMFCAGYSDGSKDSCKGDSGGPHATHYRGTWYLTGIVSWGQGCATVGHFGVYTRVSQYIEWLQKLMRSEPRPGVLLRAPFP

B1: SUMO protease (Invitrogen Cat. No. 12588-018) (protein)
chain: LVPELNEKDDDQVQKALASRENTQLMNRDNIEITVRDFKTLAPRRWLNDTIIEFFMKYIEKSTPNTVAFNSFFYTNLSERGYQGVRRWMKRKKTQIDKLDKIFTPINLNQSHWALGIIDLKKKTIGYVDSLSNGPNAMSFAILTDLQKYVMEESKHTIGEDFDLIHLDCPQQPNGYDCGIYVCMNTLYGSADAPLDFDYKDAIRMRRFIAHLILTDALK
Take B1: the “cleavage of SUMO from FVII-186 (reducing SDS-PAGE)” value is “showed almost complete conversion of FVII-186 to the desired FVIIHC”.
